We go through two substances from publication doi:10.1101/2024.05.02.592261.

Several values for one entry are separate records, joined by “and”; a condition that tells them apart may be missing. Identical values can stand only once.

The experiment deals with His-EutM (UniProt P41791). The experiment can be described thus: pull-down.
Sequence of UniProt P41791 (P41791 whole entry): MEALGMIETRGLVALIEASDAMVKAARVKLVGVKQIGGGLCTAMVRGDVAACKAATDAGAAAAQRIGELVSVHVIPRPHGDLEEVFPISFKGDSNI

On to SnoopT-EutM-SpyT, for which the molar ratio of His-EutM to dual-modified EutM in the purified hybrid scaffold was 3.3 :1 and 7.6 :1. For SpyC-EutM-SnoopC, the molar ratio of His-EutM to dual-modified EutM in the purified hybrid scaffold was 3.9 :1 and 8.8 :1.
